Assay results taken from paper PMC2914791, “Trichomonas Transmembrane Cyclases Result from Massive Gene Duplication and Concomitant Development of Pseudogenes” (PLoS Neglected Tropical Diseases, 2010).

Substrate: Nc1ncnc2c1ncn2[C@@H]1O[C@H](COP(=O)(O)OP(=O)(O)OP(=O)(O)O)[C@@H](O)[C@H]1O
Assay: cAMP direct immunoassay, colorimetric
Type: biochemical, Trichomonas vaginalis
Conditions: 4 µg GST-fusion protein; 0.2 mM GTP present in cAMP assay

B1: group B cyclase (TVAG_013980), Trichomonas TMAC cyclase domain (Trichomonas vaginalis G3) (protein)
chain: TIFFVDIVKFSNYAAALSPSEIMSNLSLVFSTFDKIVVKYPTILKIKLIGDVYMAAAGIFSDPQMNPSKPAEESVNCCLDIQKVMEQINVKLSAGLEVRIGVNTGGPLIGGVLGTDKPTFDIIGDPINVASRLQ
**Q.** B1 was tested. Which Km did it give?
**A.** The Km was 710 ± 10 µM.

B2: group A cyclase (TVAG_456550), Trichomonas TMAC cyclase domain (Trichomonas vaginalis G3) (protein)
chain: TILFLDVVEFTPWCGSHDAQYVMRMLNIMFKEFDVITNAHKTMTKIKCIGDCYMAAGGIFDEVNQPPVHAKEVVDFGCKVIKKLLEIDEQENEKLRIRVGINTGGPIVAGVIGTEKPTFEILGPAINIAHEME
**Q.** B2 was tested. Which Km did it give?
**A.** The Km was 520 ± 10 µM.
